Measured values as given in publication doi:10.1101/2023.02.27.530324.
“And” between values parts separate entries of the source, which are not always exact repeats. Identical values can stand only once.

Tests used:
[1] = target: Enhygromyxa salina luciferase LuxA (Enhygromyxa salina); assay: SEC-MALS
[2] = target: Enhygromyxa salina luciferase LuxA (Enhygromyxa salina); assay: SAXS

With “Enhygromyxa salina luciferase LuxA (enzyme)” the stoichiometry N [1] was 2 and 4, the percent of the protein as dimers [2] was 82% and the percent of the protein as tetramers [2] was 18%. The stoichiometry N [2] was 2 and 4.
